± gives the standard deviation of the averaged measurements.
tested on: Saccharomyces cerevisiae; experiment: protein stability index of tFT-peptide fusion (C-terminal peptide) (PSI (0-1 scale)); higher = more stable (slower turnover); conditions: genetic background: wild type; temperature: 30 C
Experimental: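 Multiplexed protein stability (MPS) profiling in S. cerevisiae. Random 12-aa peptides (tFT-X12 library) are fused to the C-terminus of a sfGFP-mCherry tandem fluorescent timer, after mCherry and a GGGS linker. Cells are FACS-sorted into 8 mCherry/sfGFP bins and deep-sequenced. The protein stability index (PSI) is the read-weighted bin average, scaled from 0 (unstable) to 1 (stable). Only peptides with >10 reads are reported; cells were grown at 30 °C in SC-His with glucose.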
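Note: PSI is a weighted mean of sequencing reads over stability bins, variants kept only with over 10 reads, mCherry proximal and sfGFP distal, peptide attached via GGGS linker.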

Row | Sequence | protein stability index
1 | GGVGGGAAEGAV | 0.758 ± 0.024
2 | GGVGVGRGVCVF | 0.6187 ± 0.0012
3 | GGVLLPGFSHLL | 0.7133 ± 0.0068
4 | GGVRRSPRAILR | 0.705 ± 0.014
5 | GGVSCYVHRRAR | 0.688 ± 0.06
6 | GGVSGEGFSWVG | 0.66987 ± 0.0004
7 | GGVVACGLRVAS | 0.62 ± 0.058
8 | GGVVGGRAGRGG | 0.617 ± 0.033
9 | GGVVGVEWGAVG | 0.626 ± 0.015
10 | GGVVRGVWVGRG | 0.725 ± 0.028
11 | GGVYVASQGTFV | 0.673 ± 0.021
12 | GGWAGLGAPGVS | 0.697 ± 0.028
13 | GGWCGGGGAWSG | 0.6985 ± 0.0027
14 | GGWGGGCGACVV | 0.72 ± 0.073
15 | GGWGGRSGTEGE | 0.686 ± 0.013
16 | GGWGPGALEVGT | 0.6578 ± 0.0018
17 | GHAPSSCPPPPR | 0.692 ± 0.062
18 | GHCFCRLLPLHW | 0.755 ± 0.025
19 | GHCVALGNRVLH | 0.665 ± 0.068
20 | GHDWRNPRLVED | 0.645 ± 0.062
21 | GHRAEGMWSGGL | 0.751 ± 0.098
22 | GHRRLGNRWSVG | 0.671 ± 0.035
23 | GIDKTNHKQEKN | 0.691 ± 0.0085
24 | GIGFHSREIGER | 0.66 ± 0.055
25 | GIGGNWAVSRNC | 0.73 ± 0.12

Row | Sequence | protein stability index
26 | GIGKADSKRERS | 0.652 ± 0.00097
27 | GIKKKKKKQDKK | 0.728 ± 0.076
28 | GIMPVRENCGVF | 0.6422 ± 0.0048
29 | GIPYALVTPPFP | 0.7724 ± 0.0077
30 | GIRKNIDNNEKI | 0.686 ± 0.03
31 | GITSGRAVGGRA | 0.713 ± 0.011
32 | GIVCGDADMEGG | 0.676 ± 0.051
33 | GKALESLEGQFT | 0.728 ± 0.019
34 | GKEGGRERVANE | 0.639 ± 0.091
35 | GKFTGPLGARSR | 0.658 ± 0.032
36 | GKKPNSGKNKKK | 0.694 ± 0.049
37 | GKMLSRPRKTEN | 0.711 ± 0.03
38 | GKNKSKKEKKEK | 0.668 ± 0.032
39 | GKRETQVEEGAR | 0.765 ± 0.11
40 | GKRYEKVGVEWW | 0.765 ± 0.12
41 | GKTQLIKNIQNI | 0.568 ± 0.023
42 | GKVCGRAEYPQT | 0.719 ± 0.035
43 | GKYEALGRFSPG | 0.71 ± 0.015
44 | GKYQQGFQKVTR | 0.668 ± 0.025
45 | GLAAGGAVMPPL | 0.7188 ± 0.0064
46 | GLAELKSYDGEG | 0.696 ± 0.034
47 | GLAQRAIKNRHR | 0.679 ± 0.11
48 | GLARSICRNYGL | 0.706 ± 0.014
49 | GLASLTGVPRCW | 0.723 ± 0.027
50 | GLCACTSFLVSW | 0.697 ± 0.028

Row | Sequence | protein stability index
51 | GLCAVWSGAGRC | 0.7 ± 0.037
52 | GLCSEETPALFY | 0.7173 ± 0.0043
53 | GLDDLMPGRVLW | 0.666 ± 0.015
54 | GLDEGCRGGEEV | 0.673 ± 0.0092
55 | GLDNNKCTEKKI | 0.665 ± 0.13
56 | GLEPSGLSGGSW | 0.672 ± 0.041
57 | GLGEWGGRGVCG | 0.692 ± 0.015
58 | GLGGRGGAVGEW | 0.67252 ± 0.0004
59 | GLGVMGVGCVGS | 0.653 ± 0.054
60 | GLGVVSVWSGGL | 0.703 ± 0.044
61 | GLLGVRVVAGLG | 0.625 ± 0.032
62 | GLMSVRYSGTGV | 0.6743 ± 0.006
63 | GLNTKAQSRIPM | 0.742 ± 0.018
64 | GLPPLAMPALSI | 0.72 ± 0.057
65 | GLPPLLSPVPLR | 0.646 ± 0.057
66 | GLPSHPAPPSTN | 0.657 ± 0.11
67 | GLPTFLTDSSFW | 0.725 ± 0.039
68 | GLPWRRVGGGAG | 0.644 ± 0.013
69 | GLRCSRVSFFFW | 0.64 ± 0.039
70 | GLRRWLSTAMRR | 0.7339 ± 0.0033
71 | GLSALVVCPSWG | 0.65062 ± 0.00034
72 | GLSRYLTCNNLV | 0.674 ± 0.0075
73 | GLSVSGLWGVFG | 0.629 ± 0.2
74 | GLTGAATVPHSA | 0.732 ± 0.013
75 | GLVRGGCGTVGG | 0.774 ± 0.18

Row | Sequence | protein stability index
76 | GLWCVGGGAVGV | 0.6818 ± 0.004
77 | GLYTRLYIPRPC | 0.739 ± 0.033
78 | GMRRGGGWCRGW | 0.674 ± 0.027
79 | GMTYEKIKNVIE | 0.651 ± 0.025
80 | GNAGGFRSLISW | 0.663 ± 0.065
81 | GNGENKVIVRKS | 0.696 ± 0.045
82 | GNGIRLIPPAYS | 0.725 ± 0.028
83 | GNKMYRSREGNC | 0.6709 ± 0.003
84 | GNTQSIEQALLV | 0.752 ± 0.028
85 | GPFDVLPEPNPG | 0.6348 ± 0.0037
86 | GPFRRLRCTAFI | 0.713 ± 0.059
87 | GPGCDDDASGSV | 0.686 ± 0.013
88 | GPGFRSGVELVW | 0.759 ± 0.069
89 | GPGGTVDLIWGS | 0.703 ± 0.034
90 | GPGRIPLTSALP | 0.63968 ± 0.00049
91 | GPHAPPPSFPAP | 0.718 ± 0.074
92 | GPPPPPPPASPH | 0.715 ± 0.1
93 | GPPPPSPRPTRR | 0.723 ± 0.031
94 | GPPPRCKYLRAS | 0.6348 ± 0.00079
95 | GPPTKLTLNQQK | 0.6286 ± 0.00082
96 | GPRPATTSPLPT | 0.721 ± 0.2
97 | GPRRLGGTSLGI | 0.651 ± 0.098
98 | GPRRLNAYADPF | 0.722 ± 0.082
99 | GPSPLTMPGSPS | 0.683 ± 0.064
100 | GPSRKCPFDVVS | 0.6654 ± 0.0021

Row | Sequence | protein stability index
101 | GPTGPATQNDDS | 0.671 ± 0.018
102 | GPVLAVTRIVCK | 0.552 ± 0.0096
103 | GPYPPFSPPPLS | 0.697 ± 0.072
104 | GQGACWLCVGGR | 0.685 ± 0.02
105 | GQKKGRGGEREE | 0.676 ± 0.03
106 | GQLGGRGNRRVA | 0.718 ± 0.041
107 | GQQILGGRSLEG | 0.63 ± 0.035
108 | GQQVDKMLWDEV | 0.715 ± 0.025
109 | GQVAKVKVRKKK | 0.755 ± 0.052
110 | GRCFGGVVRGAL | 0.655 ± 0.051
111 | GRCVCVLFWHVS | 0.571 ± 0.0078
112 | GRDCSSHFIVPL | 0.713 ± 0.029
113 | GRDGQTLYLVLL | 0.686 ± 0.03
114 | GREGELDKKKWH | 0.723 ± 0.051
115 | GREGKEKKKPRR | 0.696 ± 0.097
116 | GREGKHLGAPPS | 0.68 ± 0.032
117 | GREGQGRGGQQG | 0.629 ± 0.05
118 | GRERGTEKGESG | 0.631 ± 0.11
119 | GRERMVVVSCGS | 0.629 ± 0.043
120 | GRGDNRKVDGEG | 0.671 ± 0.061
121 | GRGGGGGRDREA | 0.703 ± 0.076
122 | GRGGGRGVGVVG | 0.6345 ± 0.0028
123 | GRGGLGGGEWDR | 0.711 ± 0.0028
124 | GRGGPSGAKAHR | 0.684 ± 0.026
125 | GRGGTYVVLWGV | 0.661 ± 0.1

Row | Sequence | protein stability index
126 | GRGKGNEREVRT | 0.656 ± 0.022
127 | GRGLGRVMRGRV | 0.6182 ± 0.0059
128 | GRGLSSLCRRFS | 0.691 ± 0.044
129 | GRGRDDKTYKKT | 0.669 ± 0.031
130 | GRGRGEVMNGRG | 0.574 ± 0.0044
131 | GRGRLLYWEKWL | 0.66 ± 0.03
132 | GRIRGCSPFPLW | 0.63 ± 0.094
133 | GRKCWDRSGWTV | 0.771 ± 0.014
134 | GRKIIIRKNKIK | 0.613 ± 0.05
135 | GRKKKINDDKKN | 0.688 ± 0.071
136 | GRLGCAVCGSRG | 0.708 ± 0.041
137 | GRLLRVSCHGVS | 0.701 ± 0.019
138 | GRNFSHKKRGKY | 0.685 ± 0.03
139 | GRPRPRSGWILL | 0.672 ± 0.067
140 | GRQLNDSISTLK | 0.642 ± 0.015
141 | GRQVTSTLTKLL | 0.617 ± 0.18
142 | GRRCKNMKKMSW | 0.674 ± 0.046
143 | GRRGRWCAGQWG | 0.6743 ± 0.0062
144 | GRRLGREWGDAP | 0.721 ± 0.12
145 | GRRNGLCENPRG | 0.657 ± 0.0077
146 | GRRPPWRFSFPF | 0.769 ± 0.063
147 | GRRRDREAVVPW | 0.732 ± 0.032
148 | GRRRGWAWGVWG | 0.683 ± 0.0084
149 | GRRVPGPLRSSE | 0.709 ± 0.085
150 | GRSVSGYGSFID | 0.686 ± 0.017

Row | Sequence | protein stability index
151 | GRVAMAVSGGVG | 0.638 ± 0.023
152 | GRVGFGSGAWLR | 0.669 ± 0.0021
153 | GRVGGRAGGRGR | 0.691 ± 0.039
154 | GRVGGRSGGRGR | 0.68 ± 0.013
155 | GRVGSLCGWLWR | 0.722 ± 0.02
156 | GRVRARGRRGKG | 0.625 ± 0.058
157 | GRVRFVCVGLGG | 0.639 ± 0.047
158 | GRWRIVSLEELQ | 0.724 ± 0.035
159 | GRYLGARRGRAF | 0.68 ± 0.078
160 | GRYSECCSGGGG | 0.674 ± 0.015
161 | GSCGCLSVVSGR | 0.713 ± 0.044
162 | GSCGWCGVARWG | 0.762 ± 0.05
163 | GSERGGRSRGRG | 0.665 ± 0.0059
164 | GSFVEEVFRVKS | 0.6646 ± 0.0061
165 | GSGRNKGLWRIW | 0.725 ± 0.04
166 | GSGSVWQGLGSG | 0.711 ± 0.032
167 | GSGTPRTPCLSH | 0.642 ± 0.04
168 | GSLASRGVFVVV | 0.614 ± 0.042
169 | GSNRLYRGVTIT | 0.627 ± 0.0082
170 | GSNRTLSLYCVG | 0.633 ± 0.016
171 | GSPRFSNGCEYF | 0.59 ± 0.026
172 | GSREHYGLFLGH | 0.673 ± 0.032
173 | GSRSSDTGGRLM | 0.6819 ± 0.00074
174 | GSRVGRATGRRR | 0.709 ± 0.014
175 | GSRWRISYQQVL | 0.623 ± 0.037

Row | Sequence | protein stability index
176 | GSSGRFFHVVVF | 0.644 ± 0.074
177 | GSSPCHNEESGT | 0.693 ± 0.014
178 | GSVGWRGGEGRW | 0.59 ± 0.11
179 | GSVLRCFFRKGS | 0.6923 ± 0.0059
180 | GSVYFDLLCVRP | 0.729 ± 0.048
181 | GSWIGGSVIGGQ | 0.763 ± 0.073
182 | GTASGGPKVSLF | 0.656 ± 0.088
183 | GTETKIRNKHVE | 0.645 ± 0.059
184 | GTGMMGFFWIVA | 0.571 ± 0.069
185 | GTKGEGGGKGGV | 0.693 ± 0.038
186 | GTLDTDAGTINH | 0.683 ± 0.025
187 | GTPNLTEEPPHQ | 0.761 ± 0.034
188 | GTPPRSGLPLCT | 0.711 ± 0.0099
189 | GTRAETQWSVGM | 0.682 ± 0.013
190 | GTRPSPPSRLVS | 0.677 ± 0.031
191 | GTVHQQGGPIDG | 0.676 ± 0.033
192 | GVAGRRRRAGAW | 0.7294 ± 0.002
193 | GVAVLAGWEVLG | 0.653 ± 0.021
194 | GVCGGGGGWGVA | 0.6826 ± 0.0019
195 | GVCSRVFLGRVE | 0.6836 ± 0.0065
196 | GVDKQSGTRNIK | 0.704 ± 0.0068

From the supplement of paper PMC10724198
